We go through one substance from US20200040103A1.

In this test the target is recombinant human KLK5 (human) (UniProt Q9Y337). The test can be described thus: cell-based or functional assay.
recombinant human KLK5 (human), sequence (Q9Y337 67-293): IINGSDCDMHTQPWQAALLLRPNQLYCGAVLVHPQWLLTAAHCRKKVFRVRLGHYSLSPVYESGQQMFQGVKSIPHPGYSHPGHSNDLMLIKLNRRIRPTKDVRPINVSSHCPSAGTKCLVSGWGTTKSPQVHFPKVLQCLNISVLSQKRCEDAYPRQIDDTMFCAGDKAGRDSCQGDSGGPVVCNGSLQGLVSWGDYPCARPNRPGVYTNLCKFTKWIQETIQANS

Spink5.Fc (Fc fusion): the IC50, KLK5-induced IL-8 secretion by A549 cells was 21 nM.
